This assay deals with SARS-CoV-2 Spike RBD-His (Cat #: 40592-V08B) (SARS-CoV-2), P0DTC2.

Regarding CIEEQAKTFLDKFNHEAEDLFYQS (modifications not checked) [Cys-SBP-PEG4], the N:Au ratio (XPS) after RBD binding worked out at 1.45.
With CIEEQAKTFLDKFNHEAEDLFYQS (modifications not checked) [Cys-SBP], the N:Au ratio (XPS) after RBD binding turned out to be 1.31.

(Values after patent US20240369491A1.)
